T1: ER-body protein NAI2 (Arabidopsis, UniProt Q9LSB4 25-772, limits assumed)
T1 construct: also called AT3G15950
T1 sequence: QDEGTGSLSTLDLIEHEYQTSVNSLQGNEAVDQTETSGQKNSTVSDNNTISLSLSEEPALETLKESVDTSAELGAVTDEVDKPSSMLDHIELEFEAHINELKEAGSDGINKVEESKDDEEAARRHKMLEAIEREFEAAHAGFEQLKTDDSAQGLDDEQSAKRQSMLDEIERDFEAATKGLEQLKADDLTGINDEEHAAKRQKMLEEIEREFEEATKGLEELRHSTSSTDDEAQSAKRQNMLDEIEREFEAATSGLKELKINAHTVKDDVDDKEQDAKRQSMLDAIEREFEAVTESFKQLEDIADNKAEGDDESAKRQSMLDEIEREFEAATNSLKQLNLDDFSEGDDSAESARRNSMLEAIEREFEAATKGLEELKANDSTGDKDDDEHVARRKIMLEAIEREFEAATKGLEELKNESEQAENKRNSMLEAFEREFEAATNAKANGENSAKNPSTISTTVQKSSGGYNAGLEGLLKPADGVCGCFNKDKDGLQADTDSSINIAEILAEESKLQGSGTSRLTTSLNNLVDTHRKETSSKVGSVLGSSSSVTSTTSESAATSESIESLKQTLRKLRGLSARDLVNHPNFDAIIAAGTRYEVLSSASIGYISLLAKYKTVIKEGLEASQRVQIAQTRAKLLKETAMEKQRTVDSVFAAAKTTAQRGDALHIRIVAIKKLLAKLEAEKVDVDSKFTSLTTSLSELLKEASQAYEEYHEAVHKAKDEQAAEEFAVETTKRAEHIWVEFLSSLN


Experiments:
[1] = target: the molecule itself; assay: mbSUS split-ubiquitin interaction assay, full length AFL1 with itself
Method: Mating-based Split-Ubiquitin System (mbSUS) assays were performed as previously described using vectors and yeast strains obtained from the Arabidopsis Biological Resource Center. Full length AFL1 as well as putative interactors were expressed in yeast strains THY.AP4 and THY.AP5, respectively, by recombinational in vivo cloning and plated on SC-Leu-Met or SC-Trp-Ura-Met (SC/+AHL) plates for selection. The interaction was tested by X-gal agarose overlay assay.

ER-body protein NAI2 = target: T1, ER-body protein NAI2; assay: yeast two hybrid library screen (AFL1 N-terminus)
Method: A yeast two hybrid library was prepared using mRNA from seedlings exposed to −1.2 MPa low water potential stress for 96 h. The library was prepared using the Cloneminer II cDNA construction (Invitrogen) according to the manufacturer's instructions. Yeast two hybrid screening was performed using the ProQuest Two-hybrid system (Invitrogen) following manufacturer's instructions with an N-terminal fragment of AFL1 (amino acids 1 to 208) as bait. The bait fragment was cloned into destination vector pDEST23 and co-transformed into MaV203 along with clones from the cDNA library using LiAc X transformation. […] Colonies that grew on the selective media were re-streaked and subjected to β-galactosidase filter assay to confirm interaction. Out of approximately 8×10⁵ colony forming units screened, clones of PDI5, NAI2, and TSA1 were detected repeatedly. Most of these clones were C-terminal truncations. Full length cDNA clones of PDI5, NAI2 and TSA1 were obtained (using the cloning procedures described above) and confirmed to interact with the AFL1 bait construct in β-galactosidase filter assays.

| binding result (ER-body protein NAI2) | Binder | binding result [1] |
| --- | --- | --- |
| – | At14a-like1 (AFL1), full length (other, Full-length AFL1; In mbSUS it was a split-ubiquitin fusion expressed in yeast; In BiFC it was a fusion to a YFP half (YFPN or YFPC, the latter MYC-tagged); This entry also stands for native AFL1 in seedling extracts (47 kDa band; co-purified with YFP-AFL1); also called AT3G28270; Full Length AFL1) MALSKDLMLKCSEDMMSAYKSACEEHPKLKSFDASLQQRTNKMIDSLTVEDKNGSSSPHDAHMELSKHLVEVTQGVADFITEIEDDVWDNQALKYLVLAYFENTKKTLEIFKTIENCVENAEMGQLLIREALAEFEKESAEKDVGGKKKKYEKTLEDLKSFKEMGDPFDGKVLTTQFERIKKQQESLLEEVSETRKKIQDEISNLEKKTLITNVVFGAAFAIVAVASIALIATGVGAAAGFGALAAPLLAAGWAGVYTTLDKKKDALNKQLEGLKKVEEIEESVEKGIKTNEEATETVSILVDGLEDRIKNMLKLVDNAIDHEDNEAATRIVLTQISKKVEKLTKKITEVGESVEDHSKLIAKARLQVLQKINR | binds |
| binds | AFL1 N-terminal fragment (amino acids 1 to 208) (other, Yeast two hybrid bait in a ProQuest destination vector (printed as pDEST23); also called AFL1 N-terminus; N-terminal domain of AFL1) MALSKDLMLKCSEDMMSAYKSACEEHPKLKSFDASLQQRTNKMIDSLTVEDKNGSSSPHDAHMELSKHLVEVTQGVADFITEIEDDVWDNQALKYLVLAYFENTKKTLEIFKTIENCVENAEMGQLLIREALAEFEKESAEKDVGGKKKKYEKTLEDLKSFKEMGDPFDGKVLTTQFERIKKQQESLLEEVSETRKKIQDEISNLEKK | – |

— patent publication US20160090605A1 (ACADEMIA SINICA, published 2016)
